{"source": "patent US20220062415A1", "about": "“Methods of Treating Multiple Myeloma” (Janssen Biotech, Inc., priority 2018, published 2022)", "key": {"[1]": {"conditions": "in vivo", "text": "The first subject in this cohort started treatment with D-VMP. Subjects in the D-VMP cohort of the Phase 1b Study received treatment for a maximum of 9 cycles. Long-term follow-up for this cohort continued until death, loss to follow up, withdrawal of consent, or study end, whichever occurred first. The primary objective for the Phase 1b Study was to evaluate safety and tolerability of the combination regimen. Efficacy assessments (primary efficacy endpoint, overall response rate (ORR)) were performed per International Myeloma Working Group (IMWG) guidelines (Kumar S, et al. Lancet Oncol. 2016;17(8):e328-e346, hereby incorporated by reference in its entirety), and a computerized, validated algorithm as described above was utilized for determining response based on IMWG criteria.\n(§1) Clinical pharmacology information provided herein focuses on data from subjects with evaluable pharmacokinetic data treated with D-VMP in the Phase 3 Study (n=342), and supportive information derived from the Phase 1b Study in the cohort of subjects treated with D-VMP having evaluable pharmacokinetic data (n=11). In addition, an updated population pharmacokinetics (PPK) analysis including data from the Phase 3 and Phase 1b Studies and exposure-response (efficacy and safety) analyses including data from Phase 3 Study were conducted."}, "[2]": {"conditions": "cited from earlier work"}, "[3]": {"test": "Pooled infusion-related reaction analysis, 1,166 subjects treated with daratumumab 16 mg/kg IV", "assay_type": "in vivo, human"}, "[4]": {"conditions": "in vivo", "remark": "listed apart in the source"}, "[5]": {"conditions": "mean±SD, cited from earlier work"}, "[6]": {"test": "Phase 3 Study: daratumumab serum pharmacokinetics", "assay_type": "in vivo, human", "conditions": "daratumumab 16 mg/kg in D-VMP", "text": "as §1"}}, "note": "Like-named read-outs stand apart in the source and are kept apart here.", "data": [{"substance": "daratumumab", "values": [{"measurement": "mean end-of-infusion concentration following the first dose", "setting": "[1]", "value": 332.2, "unit": "µg/mL"}, {"measurement": "mean maximum trough concentration", "setting": "[2]; after 8 weekly doses, monotherapy", "value": 573.5, "unit": "µg/mL"}, {"measurement": "mean end-of-infusion concentration following the first dose", "setting": "[2]; daratumumab monotherapy, Phase 2 study", "value": 312.5, "unit": "µg/mL"}, {"measurement": "increase in daratumumab compared with the first dose", "setting": "[2]; end of 8 weekly doses of monotherapy", "value": 2.9, "unit": "fold"}, {"measurement": "Grade 4 IRRs", "setting": "[3]; 2 of 1,166 subjects", "value": 0.2, "unit": "%"}, {"measurement": "incidence of any grade IRR", "setting": "[3]; first infusion, pooled 1,166 subjects", "value": 40, "unit": "%"}, {"measurement": "incidence of infusion modification due to IRRs", "setting": "[3]; pooled", "value": 37, "unit": "%"}, {"measurement": "incidence of any grade IRR", "setting": "[3]; second infusion, pooled", "value": 2, "unit": "%"}, {"measurement": "subjects with a Grade 3 IRR", "setting": "[3]; second or subsequent infusion, pooled", "value": "< 1", "unit": "%"}, {"measurement": "incidence of any grade IRR", "setting": "[3]; subsequent infusions, pooled", "value": 4, "unit": "%"}, {"measurement": "model-derived half-life associated with the CL", "setting": "[4]; human", "value": "approximately 22.1±9.7 days"}, {"measurement": "estimated Vi value", "setting": "[4]", "value": "approached plasma volume"}, {"measurement": "time to apparent steady state", "setting": "[4]", "value": "approximately 5 months"}, {"measurement": "half-life", "setting": "[5]; monotherapy study data", "value": "18 ± 9", "unit": "days"}, {"measurement": "half-life", "setting": "[5]; previous combination therapy study data", "value": "23.3 ± 11.8", "unit": "days"}, {"measurement": "mean end-of-infusion concentration following the first dose", "setting": "[6]", "value": 266.7, "unit": "µg/mL"}]}]}
